This note sets out measurements from patent US20120045819A1.

The target of experiment [1] is REFACTO® (recombinant factor VIII-like polypeptide consisting of amino acids 1-743 and 1638 through 2332 of human factor VIII) (human) (UniProt P00451). In words: phage ELISA, ratio with target to without target. Background: ELISA stands for enzyme-linked immunosorbent assay.
For experiment [2] the target is unchanged. Briefly: phage ELISA on the factor VIII target (REFACTO), anti-M13-HRP.
Experiment [3] has the same target. In words: affinity column, peptide on Toyopearl Formyl 650-M; fraction quantified by RP-HPLC.
For experiment [4] the target is unchanged. In words: affinity column, peptide on Toyopearl Formyl 650-M; fraction quantified by factor VIII activity assay.
For experiment [5] the target is unchanged. Briefly: batch binding to peptide beads; fractions by sandwich ELISA; % of input.
Experiment [6] shares this target. Briefly: batch binding to peptide beads; fractions by sandwich ELISA; % of total recovered.

Positions of bridges follow the written chain, without caps; N, C: chain ends. No end group written: not given here. *: point of attachment. NHNH2 = NN*

REFACTO® (recombinant factor VIII-like polypeptide consisting of amino acids 1-743 and 1638 through 2332 of human factor VIII) (human), sequence (P00451 20-762, chain 1 of 2): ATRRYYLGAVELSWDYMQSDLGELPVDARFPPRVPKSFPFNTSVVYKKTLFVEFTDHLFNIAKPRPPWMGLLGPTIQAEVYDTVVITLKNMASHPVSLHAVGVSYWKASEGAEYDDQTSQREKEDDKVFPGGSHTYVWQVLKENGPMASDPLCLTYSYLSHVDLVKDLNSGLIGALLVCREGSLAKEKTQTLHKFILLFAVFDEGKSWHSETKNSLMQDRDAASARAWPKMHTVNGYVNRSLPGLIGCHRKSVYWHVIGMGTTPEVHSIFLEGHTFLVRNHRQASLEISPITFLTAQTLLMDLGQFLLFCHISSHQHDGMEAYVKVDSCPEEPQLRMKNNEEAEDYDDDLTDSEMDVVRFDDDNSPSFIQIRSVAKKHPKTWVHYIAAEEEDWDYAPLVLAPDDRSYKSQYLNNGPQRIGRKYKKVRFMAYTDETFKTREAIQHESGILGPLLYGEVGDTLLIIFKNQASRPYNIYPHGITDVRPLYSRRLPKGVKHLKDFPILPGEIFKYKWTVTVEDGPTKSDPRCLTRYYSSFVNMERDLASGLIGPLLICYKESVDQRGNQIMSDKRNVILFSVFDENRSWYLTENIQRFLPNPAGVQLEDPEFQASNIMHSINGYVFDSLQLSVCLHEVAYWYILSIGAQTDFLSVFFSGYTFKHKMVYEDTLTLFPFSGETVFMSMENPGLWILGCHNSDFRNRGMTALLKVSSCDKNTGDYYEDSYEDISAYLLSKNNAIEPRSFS
REFACTO® (recombinant factor VIII-like polypeptide consisting of amino acids 1-743 and 1638 through 2332 of human factor VIII) (human), sequence (P00451 1657-2351, chain 2 of 2): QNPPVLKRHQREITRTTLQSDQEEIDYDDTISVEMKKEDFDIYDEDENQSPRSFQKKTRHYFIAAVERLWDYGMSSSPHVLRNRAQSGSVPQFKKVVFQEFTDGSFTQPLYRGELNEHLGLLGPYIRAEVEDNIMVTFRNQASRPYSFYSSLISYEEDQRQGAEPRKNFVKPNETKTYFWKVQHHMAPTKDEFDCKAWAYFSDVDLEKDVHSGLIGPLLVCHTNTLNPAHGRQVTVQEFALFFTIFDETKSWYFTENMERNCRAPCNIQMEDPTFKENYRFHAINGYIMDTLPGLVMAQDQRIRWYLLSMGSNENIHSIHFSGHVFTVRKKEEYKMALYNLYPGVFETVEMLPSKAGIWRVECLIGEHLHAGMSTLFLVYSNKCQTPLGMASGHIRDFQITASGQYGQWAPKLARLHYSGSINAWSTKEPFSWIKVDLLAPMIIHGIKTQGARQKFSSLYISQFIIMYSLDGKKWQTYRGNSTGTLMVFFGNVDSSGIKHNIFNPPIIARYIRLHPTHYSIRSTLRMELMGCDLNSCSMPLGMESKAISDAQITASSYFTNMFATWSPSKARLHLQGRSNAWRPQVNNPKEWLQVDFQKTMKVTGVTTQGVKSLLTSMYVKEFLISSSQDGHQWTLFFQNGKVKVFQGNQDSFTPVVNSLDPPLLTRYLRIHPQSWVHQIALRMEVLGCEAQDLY

B1: TN9 phage isolates 04 (B04-TN9) and 01 displaying Phe-Cys-Trp-Val-Phe-Ala-Phe-Asp-His-Cys-His (peptide)
peptide: FCWVFAFDHCH
B1: the R (ELISA score with target / ELISA score without target) in experiment [1] is 24.

B2: TN7 phage isolate A08 (peptide)
peptide: FGCSWLFPCPF
B2: the R (ELISA score with target / ELISA score without target) in experiment [1] is 8. For the same molecule, in experiment [2], the ELISA signal came out at 0.4 OD630.

B3: TN7 phage isolate D03 (peptide)
peptide: PHCNWLFPCSL
As to B3, the ELISA signal in experiment [2] came to 0.2 OD630.

B4: TN8 phage isolate 01 (SEQ ID NO: 18) (peptide)
peptide: HGCGAWFRPCHA
For B4, the ELISA signal in experiment [2] turned out to be 0.2 OD630.

B5: TN9 phage isolate 09 (E09-TN9) (peptide)
peptide: FCWVFPFQHCA
Take B5: in experiment [1], the R (ELISA score with target / ELISA score without target) was 24. For the same molecule, in experiment [2], the ELISA signal worked out at 1.1 OD630.

B6: TN9 phage isolate 03 (SEQ ID NO: 26) (peptide)
peptide: FCWVFNFSHCS
Consider B6, for which the R (ELISA score with target / ELISA score without target) in experiment [1] came out at 24. Moreover, the ELISA signal in experiment [2] stood at 1.1 OD630.

B7: TN8 phage isolate 07 (SEQ ID NO: 15) (peptide)
peptide: HACGSWFRPCHA
B7: the R (ELISA score with target / ELISA score without target) in experiment [1] amounted to 6. For the same molecule, the ELISA signal in experiment [2] stood at 0.4 OD630.

B8: CS-459 (…-NHNH2) (peptide)
peptide: AEGTGDFCWVFPFQHCADPGPEGGGS-NHNH2
modifications: disulfide 8-16 (inferred)
For B8, in experiment [3], the % recovery in Flow was 1.6%, the % recovery in elution A was found to be 42.1%, the % recovery in elution B stood at 0% and the % recovery in pH2 was 0%. Moreover, in experiment [4], the % recovery in Flow amounted to 6.4% and the % recovery in elution A amounted to 31.2%.

B9: TN8 phage isolate 11/G10 (A11/G10-TN8) (peptide)
peptide: HRCGSWLHPCLA
Regarding B9, the R (ELISA score with target / ELISA score without target) in experiment [1] came to 6. Besides, the ELISA signal in experiment [2] stood at 0.3 OD630.

B10: TN7 phage isolate C5/G10 (peptide)
peptide: RLCSWVSPCSA
B10: in experiment [1], the R (ELISA score with target / ELISA score without target) is 10. For the same molecule, the ELISA signal in experiment [2] amounted to 0.5 OD630.

B11: CS-456 (…-NHNH2) (peptide)
peptide: AEGTGDFGCSWLFPCPFDPGPEGGGS-NHNH2
modifications: disulfide 9-15
In the case of B11, in experiment [5], the % of input recovered in Eluate stood at 24%, the % of input recovered in Unbound was determined as 47% and the % of input recovered in Wash amounted to 20%. In experiment [3], the % recovery in Flow is 3.4%, the % recovery in elution A was 44.8%, the % recovery in elution B stood at 0% and the % recovery in pH2 was determined as 0%. Further, in experiment [4], the % recovery in Flow came out at 4.8% and the % recovery in elution A amounted to 43%.

B12: TN7 phage isolate D04 (peptide)
peptide: RLCSWISPCSA
Consider B12, for which, in experiment [1], the R (ELISA score with target / ELISA score without target) turned out to be 6. In addition, the ELISA signal in experiment [2] worked out at 0.3 OD630.

B13: TN9 phage isolate 01 (SEQ ID NO: 24) (peptide)
peptide: FCHVFHFSHCD
For the molecule B13, the ELISA signal in experiment [2] came out at 0.2 OD630.

B14: TN9 phage isolate 02 (SEQ ID NO: 23) (peptide)
peptide: FCWVHPFAHCL
As to B14, the ELISA signal in experiment [2] is 0.2 OD630.

B15: CS-454 (…-NHNH2) (peptide)
peptide: AEGTGDHLCGAWFRPCDADPGPEGGGS-NHNH2
modifications: disulfide 9-16
Regarding B15, in experiment [5], the % of input recovered in Eluate is 49%, the % of input recovered in Unbound is 24% and the % of input recovered in Wash turned out to be 12%. Moreover, in experiment [3], the % recovery in Flow was 2.5%, the % recovery in elution A was 45.1%, the % recovery in elution B came out at 0% and the % recovery in pH2 amounted to 0%. Besides, in experiment [4], the % recovery in Flow was found to be 2.2% and the % recovery in elution A was determined as 42.4%.

B16: TN8 phage isolate 12 (SEQ ID NO: 17) (peptide)
peptide: HLCFAWFRPCDA
Consider B16, for which the R (ELISA score with target / ELISA score without target) in experiment [1] turned out to be 8. The ELISA signal in experiment [2] was found to be 0.4 OD630.

B17: TN7 phage isolate A06 (peptide)
peptide: HSCGSWLFPCFA
Consider B17, for which the R (ELISA score with target / ELISA score without target) in experiment [1] turned out to be 10. In addition, the ELISA signal in experiment [2] is 0.5 OD630.

B18: CS-458 (…-NHNH2) (peptide)
peptide: AEGTGDFCWVFAFDHCHDPGPEGGGS-NHNH2
modifications: disulfide 8-16
Take B18: in experiment [5], the % of input recovered in Eluate is 47%, the % of input recovered in Unbound was 20% and the % of input recovered in Wash is 10%. In experiment [6], the % of total recovered in Eluate was 27%, the % of total recovered in Unbound came out at 59% and the % of total recovered in Wash is 14%. In experiment [3], the % recovery in Flow worked out at 1.8%, the % recovery in elution A was 54.3%, the % recovery in elution B came out at 0% and the % recovery in pH2 was determined as 0%. In addition, in experiment [4], the % recovery in Flow turned out to be 1.4% and the % recovery in elution A was determined as 55.6%.

B19: TN9 phage isolate 02 (SEQ ID NO: 27) (peptide)
peptide: FCWVFPFNHCD
Take B19: the R (ELISA score with target / ELISA score without target) in experiment [1] was 8. In addition, the ELISA signal in experiment [2] is 0.4 OD630.

B20: TN8 phage isolate 08 (SEQ ID NO: 20) (peptide)
peptide: HPCGAWLRPCYN
With B20, in experiment [1], the R (ELISA score with target / ELISA score without target) was determined as 20. For the same molecule, in experiment [2], the ELISA signal was found to be 1 OD630.

B21: TN9 phage isolate 01 (SEQ ID NO: 31) (peptide)
peptide: FCHVFNFVHCS
With B21, in experiment [1], the R (ELISA score with target / ELISA score without target) is 8. Moreover, the ELISA signal in experiment [2] amounted to 0.5 OD630.

B22: TN8 phage isolate 04 (SEQ ID NO: 12) (peptide)
peptide: HPCGSWLHPCAA
With B22, the R (ELISA score with target / ELISA score without target) in experiment [1] came to 6. Further, the ELISA signal in experiment [2] is 0.3 OD630.

B23: TN9 phage isolate 12 (SEQ ID NO: 28) (peptide)
peptide: FCWVFPFNHCS
For B23, in experiment [1], the R (ELISA score with target / ELISA score without target) came to 18. Besides, in experiment [2], the ELISA signal was 1 OD630.

B24: TN7 phage isolate A09 (peptide)
peptide: FHCIGVWFCLH
Regarding B24, the ELISA signal in experiment [2] turned out to be 0.1 OD630.

B25: TN9/1 phage isolate … (SEQ ID NO: 77) (peptide)
peptide: FCWVFQFRHCH
As to B25, in experiment [1], the R (ELISA score with target / ELISA score without target) is 8.

B26: TN9/1 phage isolate … (SEQ ID NO: 75) (peptide)
peptide: FCWVFNWVHCD
Regarding B26, the R (ELISA score with target / ELISA score without target) in experiment [1] is 14.

B27: CS-460 (…-NHNH2) (peptide)
peptide: AEGTGDFCWVFPFHHCFDPGPEGGGS-NHNH2
modifications: disulfide 8-16 (inferred)
For B27, in experiment [3], the % recovery in Flow came to 24.6%, the % recovery in elution A turned out to be 28.8%, the % recovery in elution B came to 0% and the % recovery in pH2 amounted to 0%. Further, in experiment [4], the % recovery in Flow turned out to be 28.4% and the % recovery in elution A worked out at 0%.

B28: TN9 phage isolate 06 (D06-TN9) (peptide)
peptide: FCWVFPFHHCF
Consider B28, for which the R (ELISA score with target / ELISA score without target) in experiment [1] turned out to be 6. In addition, in experiment [2], the ELISA signal is 0.3 OD630.

B29: TN8 phage isolate 02 (E02-TN8, SEQ ID NO: 16) (peptide)
peptide: HLCGAWFRPCDA
Regarding B29, in experiment [1], the R (ELISA score with target / ELISA score without target) worked out at 6. Further, in experiment [2], the ELISA signal was 0.4 OD630.

B30: CS-453 (…-NHNH2) (peptide)
peptide: AEGTGDHPCGSWLRPCLHDPGPEGGGS-NHNH2
modifications: disulfide 9-16 (inferred)
As to B30, in experiment [3], the % recovery in Flow was 0%, the % recovery in elution A turned out to be 43.2%, the % recovery in elution B amounted to 0% and the % recovery in pH2 was found to be 0%. Besides, in experiment [4], the % recovery in Flow amounted to 0% and the % recovery in elution A was 26.4%.

B31: CS-455 (…-NHNH2) (peptide)
peptide: AEGTGDFHCIGVWFCLHDPGPEGGGS-NHNH2
modifications: disulfide 9-15 (inferred)
B31: in experiment [3], the % recovery in Flow stood at 65.8%, the % recovery in elution A is 1.4%, the % recovery in elution B turned out to be 0% and the % recovery in pH2 is 0%. Also, in experiment [4], the % recovery in Flow was found to be 61.6% and the % recovery in elution A was found to be 1.3%.

B32: TN8 phage isolate 05 (SEQ ID NO: 11) (peptide)
peptide: RGCGSWLRPCLD
As to B32, the ELISA signal in experiment [2] worked out at 0.2 OD630.

B33: TN8 phage isolate 10 (C10-TN8) (peptide)
peptide: HPCGSWLRPCLH
Consider B33, for which the R (ELISA score with target / ELISA score without target) in experiment [1] was 16. Besides, the ELISA signal in experiment [2] was 1 OD630.

B34: TN9 phage isolate 11 (SEQ ID NO: 32) (peptide)
peptide: FCHVFPFLHCD
For B34, the ELISA signal in experiment [2] was determined as 0.2 OD630.

B35: TN8 phage isolate 02 (SEQ ID NO: 14) (peptide)
peptide: HPCGSWFRPCFH
In the case of B35, the R (ELISA score with target / ELISA score without target) in experiment [1] was 16. The ELISA signal in experiment [2] was found to be 0.7 OD630.

B36: TN8 phage isolate 01 (SEQ ID NO: 19) (peptide)
peptide: HPCGAWFNPCPR
On to B36, for which the ELISA signal in experiment [2] was 0.2 OD630.

B37: TN8 phage isolate 02 (SEQ ID NO: 13) (peptide)
peptide: HPCGSWFNPCAH
As for B37, in experiment [1], the R (ELISA score with target / ELISA score without target) was found to be 8. Moreover, in experiment [2], the ELISA signal was found to be 0.3 OD630.
